The target of this assay is Purified LDLR ectodomain (UniProt P01130). As to the kind of experiment: SPR; BIAcore 3000; LDLR ectodomain immobilised on a CM5 chip by amine coupling (target 1000 RU); lipoprotein fractions injected at 5 nM apoB in HBS-N pH 7.4 (0.01 M HEPES, 0.15 M NaCl) with 0.5% BSA and 1 mM calcium chloride; 25 °C, 30 μl/min for 3 min; fitted with the two-state binding model (A + B ↔ AB ↔ AB*).
Chain of Purified LDLR ectodomain (P01130 22-788): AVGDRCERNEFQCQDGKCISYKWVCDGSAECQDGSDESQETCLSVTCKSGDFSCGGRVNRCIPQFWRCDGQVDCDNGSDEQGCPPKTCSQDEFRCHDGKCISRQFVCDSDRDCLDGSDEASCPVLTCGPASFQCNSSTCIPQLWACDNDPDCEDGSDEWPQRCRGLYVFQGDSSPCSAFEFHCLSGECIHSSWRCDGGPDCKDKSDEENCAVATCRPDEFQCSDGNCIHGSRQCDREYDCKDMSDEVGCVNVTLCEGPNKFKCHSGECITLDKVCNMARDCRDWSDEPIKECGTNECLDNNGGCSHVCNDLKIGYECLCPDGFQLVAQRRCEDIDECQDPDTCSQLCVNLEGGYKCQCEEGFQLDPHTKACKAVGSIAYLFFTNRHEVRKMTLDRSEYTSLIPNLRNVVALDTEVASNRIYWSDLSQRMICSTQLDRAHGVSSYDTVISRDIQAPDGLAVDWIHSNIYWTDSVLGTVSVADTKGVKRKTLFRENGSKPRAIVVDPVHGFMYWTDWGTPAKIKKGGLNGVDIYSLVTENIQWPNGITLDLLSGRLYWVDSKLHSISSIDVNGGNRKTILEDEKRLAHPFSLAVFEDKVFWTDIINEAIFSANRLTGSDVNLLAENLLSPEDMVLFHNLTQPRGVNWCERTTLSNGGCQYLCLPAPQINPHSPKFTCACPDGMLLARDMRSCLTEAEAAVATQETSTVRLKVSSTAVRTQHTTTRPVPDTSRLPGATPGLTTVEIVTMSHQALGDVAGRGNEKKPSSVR

Regarding “LDL (density 1.019-1.063 g/ml) isolated from fasting APOE3/E4 subjects (from UniProt P02649 19-317; P02649 19-317) (complex)”, the K1 (two-state, step 1) amounted to 1.4e+08 M⁻¹; the K2 (two-state, step 2) amounted to 1.7; the Ka was found to be 5e+08 M⁻¹; the ka1 (two-state, step 1) turned out to be 1.45e+06 M⁻¹ s⁻¹. For the same substance, the ka2 (two-state, step 2) stood at 0.006 s⁻¹; the kd1 (two-state, step 1) was 0.0127 s⁻¹; the kd2 (two-state, step 2) turned out to be 0.00287 s⁻¹.

In the case of “VLDL1-rich TRL fraction (Sf 60-400) isolated from fasting plasma of APOE3/E4 subjects (from UniProt P02649 19-317; P02649 19-317) (complex)”, the K1 (two-state, step 1) is 1.9e+08 M⁻¹; the K2 (two-state, step 2) was 17.3; the Ka amounted to 3.3e+09 M⁻¹; the ka1 (two-state, step 1) is 930000 M⁻¹ s⁻¹. Also, the ka2 (two-state, step 2) is 0.017 s⁻¹; the kd1 (two-state, step 1) is 0.0052 s⁻¹; the kd2 (two-state, step 2) stood at 0.00097 s⁻¹.

(Values after article PMC5343425.)
